Assay results from the supplement of paper PMC10567573.

B1: MED27 (parent)
chain: YNENVYTEDGKLDIWSKSNYQVFQ

Variants of: B1
Assay: protein stability index of a GFP-peptide fusion (GPS, HEK-293T) (PSI 1-6); higher = more stable
Conditions: c terminus: a fixed tail appended
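Also: lentivirally expressed fusions sorted by FACS into six bins by GFP to DsRed ratio, PSI derived from sequencing read proportions per bin multiplied by bin number.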

Variant	protein stability index
YNENVYTEDGKLDIWSKSNMQVFQ [Y20M]	1.92
YNENVYTEDGKLDIWSKSNPQVFQ [Y20P]	3.01
YNENVYTEDGKLDIWSKSNSQVFQ [Y20S]	2.72
YNENVYTEDGKLDIWSKSNNQVFQ [Y20N]	3.28
YNENVYTEDGKLDIWSKSNHQVFQ [Y20H]	2.58
YNENVYTEDGKLDIWSKSNLQVFQ [Y20L]	2.35
YNENVYTEDGKLDIWSKSNDQVFQ [Y20D]	3.38
YNENVYTEDGKLDIWSKSNRQVFQ [Y20R]	2.59
YNENVYTEDGKLDIWSKSNQQVFQ [Y20Q]	2.94
YNENVYTEDGKLDIWSKSNCQVFQ [Y20C]	2.49
YNENVYTEDGKLDIWSKSNVQVFQ [Y20V]	2.52
YNENVYTEDGKLDIWSKSNAQVFQ [Y20A]	2.49
YNENVYTEDGKLDIWSKSNFQVFQ [Y20F]	2.25
YNENVYTEDGKLDIWSKSNKQVFQ [Y20K]	2.76
YNENVYTEDGKLDIWSKSNIQVFQ [Y20I]	2.37
YNENVYTEDGKLDIWSKSNWQVFQ [Y20W]	1.64
YNENVYTEDGKLDIWSKSNTQVFQ [Y20T]	2.9
YNENVYTEDGKLDIWSKSNEQVFQ [Y20E]	3.2
YNENVYTEDGKLDIWSKSNGQVFQ [Y20G]	2.62
YNENVYTEDGKLDIKSKSNYQVFQ [W15K]	4.03
YNENVYTEDGKLDIDSKSNYQVFQ [W15D]	4.42
YNENVYTEDGKLDITSKSNYQVFQ [W15T]	3.7
YNENVYTEDGKLDINSKSNYQVFQ [W15N]	4.08
YNENVYTEDGKLDILSKSNYQVFQ [W15L]	3.32

Variant	protein stability index
YNENVYTEDGKLDICSKSNYQVFQ [W15C]	3.74
YNENVYTEDGKLDIRSKSNYQVFQ [W15R]	3.64
YNENVYTEDGKLDIPSKSNYQVFQ [W15P]	3.74
YNENVYTEDGKLDIISKSNYQVFQ [W15I]	3.31
YNENVYTEDGKLDIMSKSNYQVFQ [W15M]	3.3
YNENVYTEDGKLDIYSKSNYQVFQ [W15Y]	3.19
YNENVYTEDGKLDIVSKSNYQVFQ [W15V]	3.5
YNENVYTEDGKLDISSKSNYQVFQ [W15S]	3.83
YNENVYTEDGKLDIQSKSNYQVFQ [W15Q]	3.89
YNENVYTEDGKLDIFSKSNYQVFQ [W15F]	2.81
YNENVYTEDGKLDIESKSNYQVFQ [W15E]	4.12
YNENVYTEDGKLDIHSKSNYQVFQ [W15H]	3.85
YNENVYTEDGKLDIASKSNYQVFQ [W15A]	4.13
YNENVYTEDGKLDIGSKSNYQVFQ [W15G]	4.19
YNENVYTEDGKLDMWSKSNYQVFQ [I14M]	2.65
YNENVYTEDGKLDWWSKSNYQVFQ [I14W]	2.15
YNENVYTEDGKLDKWSKSNYQVFQ [I14K]	2.71
YNENVYTEDGKLDRWSKSNYQVFQ [I14R]	3.23
YNENVYTEDGKLDPWSKSNYQVFQ [I14P]	2.29
YNENVYTEDGKLDNWSKSNYQVFQ [I14N]	3.28
YNENVYTEDGKLDQWSKSNYQVFQ [I14Q]	3.07
YNENVYTEDGKLDTWSKSNYQVFQ [I14T]	2.78
YNENVYTEDGKLDYWSKSNYQVFQ [I14Y]	1.95
YNENVYTEDGKLDHWSKSNYQVFQ [I14H]	2.83

Variant	protein stability index
YNENVYTEDGKLDDWSKSNYQVFQ [I14D]	3.48
YNENVYTEDGKLDFWSKSNYQVFQ [I14F]	2.3
YNENVYTEDGKLDVWSKSNYQVFQ [I14V]	2.62
YNENVYTEDGKLDSWSKSNYQVFQ [I14S]	3.23
YNENVYTEDGKLDEWSKSNYQVFQ [I14E]	3.87
YNENVYTEDGKLDGWSKSNYQVFQ [I14G]	3.29
YNENVYTEDGKLDLWSKSNYQVFQ [I14L]	2.49
YNENVYTEDGKLDCWSKSNYQVFQ [I14C]	2.92
YNENVYTEDGKLDAWSKSNYQVFQ [I14A]	2.9
YNENVYTEDGKLDIWSESNYQVFQ [K17E]	2.37
YNENVYTEDGKLDIWSSSNYQVFQ [K17S]	1.98
YNENVYTEDGKLDIWSHSNYQVFQ [K17H]	2.43
YNENVYTEDGKLDIWSWSNYQVFQ [K17W]	1.92
YNENVYTEDGKLDIWSISNYQVFQ [K17I]	1.74
YNENVYTEDGKLDIWSCSNYQVFQ [K17C]	1.54
YNENVYTEDGKLDIWSQSNYQVFQ [K17Q]	1.89
YNENVYTEDGKLDIWSPSNYQVFQ [K17P]	2.68
YNENVYTEDGKLDIWSTSNYQVFQ [K17T]	1.84
YNENVYTEDGKLDIWSLSNYQVFQ [K17L]	2.22
YNENVYTEDGKLDIWSVSNYQVFQ [K17V]	2.17
YNENVYTEDGKLDIWSMSNYQVFQ [K17M]	2.3
YNENVYTEDGKLDIWSYSNYQVFQ [K17Y]	1.98
YNENVYTEDGKLDIWSGSNYQVFQ [K17G]	2.34
YNENVYTEDGKLDIWSRSNYQVFQ [K17R]	1.95

Variant	protein stability index
YNENVYTEDGKLDIWSASNYQVFQ [K17A]	2.24
YNENVYTEDGKLDIWSNSNYQVFQ [K17N]	2.07
YNENVYTEDGKLDIWSDSNYQVFQ [K17D]	2.26
YNENVYTEDGKLDIWSFSNYQVFQ [K17F]	1.68
YNENVYTEDGKLSIWSKSNYQVFQ [D13S]	1.92
YNENVYTEDGKLWIWSKSNYQVFQ [D13W]	2.46
YNENVYTEDGKLYIWSKSNYQVFQ [D13Y]	2.04
YNENVYTEDGKLQIWSKSNYQVFQ [D13Q]	2.05
YNENVYTEDGKLTIWSKSNYQVFQ [D13T]	1.63
YNENVYTEDGKLRIWSKSNYQVFQ [D13R]	2.32
YNENVYTEDGKLNIWSKSNYQVFQ [D13N]	1.76
YNENVYTEDGKLPIWSKSNYQVFQ [D13P]	2.81
YNENVYTEDGKLVIWSKSNYQVFQ [D13V]	3
YNENVYTEDGKLDIWSKSNYQVIQ [F23I]	2.43
YNENVYTEDGKLDIWSKSNYQVDQ [F23D]	3.26
YNENVYTEDGKLDIWSKSNYQVEQ [F23E]	3.02
YNENVYTEDGKLDIWSKSNYQVCQ [F23C]	2.06
YNENVYTEDGKLDIWSKSNYQVGQ [F23G]	2.88
YNENVYTEDGKLDIWSKSNYQVHQ [F23H]	2.87
YNENVYTEDGKLDIWSKSNYQVKQ [F23K]	3.22
YNENVYTEDGKLDIWSKSNYQVAQ [F23A]	2.5
YNENVYTEDGKLDIWSKSIYQVFQ [N19I]	1.6
